Positions count from the first letter of the chain named. Names may count otherwise.
B1: Abet0328 scFv (scFv, V domains shown)
VH: EVQLLESGGGLVQPGGSLRLSCAASSDAFKTDTMWWVRQAPRKGLEWVSVIGAHTNNSAYADSVKGRFTISRDNSKNTLYLQMNSLRAEDTAVYYCAREWMDRSRPYYYYGMDVWGQGTLVTVSS
VL: SYELTQPPSVSVSPGQTVSITCSGRNLEDKFASWYQQKPGQSPVLVIYRDDKRPSGVPERFSASNSGHTATLTISGTQATDEADYYCSSQDTVTRVFGGGTKLTVL
B2: Abet0380-GL IgG1-TM (antibody, V domains shown)
VH: EVQLLESGGGLVQPGGSLRLSCAASMGNFNYQTMWWVRQAPGKGLEWVSVIGKTNENIAYADSVKGRFTISRDNSKNTLYLQMNSLRAEDTAVYYCAREWMDHSRPYYYYGMDVWGQGTLVTVSS
VL: B1 VL with V18A, R25H, V57I, T80M
notes: Whole human IgG1 with the triple mutation L234F/L235E/P331S (TM) and human lambda light chain constant domain; also called Abet0380-GL (germlined) IgG1-TM
B3: Abet0144-GL IgG1-TM (antibody, V domains shown)
VH: EVQLLESGGGLVQPGGSLRLSCAASGFTFSVYTMWWVRQAPGKGLEWVSVIGSSGGTTVYADSVKGRFTISRDNSKNTLYLQMNSLRAEDTAVYYCAREWMDHSRPYYYYGMDVWGQGTLVTVSS
VL: B1 VL with V18A, R25H, V57I, T80M, S88Q, S89A, T92S, V93T
notes: Whole human IgG1 with the triple mutation L234F/L235E/P331S (TM) and human lambda light chain constant domain; also called Abet0144-GL (germlined) IgG1-TM

What was measured:
[1] = molecular target: T1, Biotinylated human Amyloid beta 1-42 peptide (human, N-terminal biotin); assay: SPR (ProteOn), biotinylated peptide on streptavidin chip, scFv as analyte
T1 construct: Synthetic peptide (rPeptide A1117 or Bachem H-5642); range counted on Amyloid beta; also called N-terminal biotin Abeta 1-42; synthetic biotinylated human Amyloid beta 1-42 peptide

[2] = molecular target: T1, Biotinylated human Amyloid beta 1-42 …; assay: HTRF epitope competition, purified scFv against Abet0144-GL IgG1-TM (competitor) for biotinylated human Amyloid beta 1-42
[3] = molecular target: T2, Amyloid beta plaques in Tg2576 mouse brain sections (human (transgene in mouse), UniProt P05067 672-713, limits assumed); assay: in vitro immunohistochemistry, core plaques
T2 construct: domain: Amyloid beta; The two APP mutations lie before the first residue of Amyloid beta; also called native Amyloid beta; Tg2576 brain sections

[4] = molecular target: T3, Amyloid beta plaques in human Alzheimer's Disease brain sections (human, UniProt P05067 672-713, limits assumed); assay: in vitro immunohistochemistry, core plaques
T3 construct: domain: Amyloid beta; Paraffin sections treated with formic acid; aggregated native peptide of mixed length; also called native Amyloid beta; human AD brain sections
T3 sequence (P05067 672-713 limits assumed): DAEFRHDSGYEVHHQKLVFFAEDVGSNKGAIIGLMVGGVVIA

T1 sequence (peptide, as listed by the source): as the sequence (P05067 672-713 limits assumed) above
T2 sequence (P05067 672-713 limits assumed): as above

Row | Binder | Kd [1] [nM] | koff [1] [s⁻¹] | kon [1] [M⁻¹ s⁻¹] | IC50 [2] [nM] | plaque staining score [3] | plaque staining score [4]
1 | B1 | 0.729 | 0.000103 | 141000 | 0.55 |  | 
2 | B2 |  |  |  |  | 4 score (0-4) | 3 score (0-4)
3 | B3 |  |  |  |  | 1 score (0-4) | 1.5 score (0-4)

— patent US20180105585A1 (published 2018)
